The values below are quoted from earlier work in PMC5741096.

The target of series [1] is IL-2Rα/IL-2Rβ/IL-2Rγ (Mus musculus) (UniProt P01590).
The target of series [2] is IL-2Rβ/IL-2Rγ (Mus musculus) (UniProt P16297).
Sequence of UniProt P16297 (P16297 27-240, chain 1 of 2): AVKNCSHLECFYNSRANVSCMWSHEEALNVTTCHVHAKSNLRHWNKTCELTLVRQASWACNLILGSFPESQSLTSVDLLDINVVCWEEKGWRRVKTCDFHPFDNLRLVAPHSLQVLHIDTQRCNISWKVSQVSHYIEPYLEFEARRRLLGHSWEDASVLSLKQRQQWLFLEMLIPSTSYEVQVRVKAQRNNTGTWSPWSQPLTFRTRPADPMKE
Sequence of UniProt P16297 (P34902 23-263, chain 2 of 2, further chain): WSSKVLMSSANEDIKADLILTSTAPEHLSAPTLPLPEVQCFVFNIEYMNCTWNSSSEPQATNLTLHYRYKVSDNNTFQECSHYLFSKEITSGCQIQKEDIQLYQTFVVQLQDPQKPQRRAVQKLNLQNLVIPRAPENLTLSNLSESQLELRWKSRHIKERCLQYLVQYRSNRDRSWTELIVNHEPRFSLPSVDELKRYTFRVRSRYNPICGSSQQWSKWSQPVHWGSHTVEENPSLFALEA

Sequence of UniProt P01590 (P01590 22-236, chain 1 of 3): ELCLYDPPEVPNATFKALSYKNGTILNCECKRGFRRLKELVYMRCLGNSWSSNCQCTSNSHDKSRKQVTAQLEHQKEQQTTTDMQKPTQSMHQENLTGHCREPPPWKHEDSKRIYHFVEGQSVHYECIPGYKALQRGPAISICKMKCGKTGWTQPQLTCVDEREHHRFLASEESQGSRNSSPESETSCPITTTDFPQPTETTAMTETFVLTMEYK
Sequence of UniProt P01590 (P16297 27-240, chain 2 of 3, further chain): as the sequence (P16297 27-240, chain 1 of 2) above
Sequence of UniProt P01590 (P34902 23-263, chain 3 of 3, further chain): as the sequence (P34902 23-263, chain 2 of 2, further chain) above

Regarding IL-2 (from UniProt P04351), the Kd (as a rule, the free concentration of one partner at which half of the binding sites on the other are occupied at equilibrium, for simple one-to-one binding) is 0.01 nM in series [1] and 1 nM in series [2].
